Earlier results on one substance are cited in article PMC2880562.

For the series, the target named is Arginine repressor ArgR (trimer) (Escherichia coli) (UniProt P0A6D0). In words: analytical ultracentrifugation.

As usually defined, the Kd is the concentration at which binding is half-saturated. As to “Arginine repressor ArgR (trimer) (from UniProt P0A6D0)”, the Kd is under 2.5 nM.
